Measured values reported in the supplement of paper PMC12042874.
± gives the uncertainty stated by the source.

Assay: amyloid nucleation score (Sup35N fusion, yeast selection) (log enrichment); library NNK3; higher = more nucleation; inactive = no reads after selection
Outline: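 The nucleation score, computed with DiMSum, is the log enrichment of output over input reads, centred on the mode score of non-aggregating sequences. Sequences with under 100 input reads were dropped. Reads were generated by Illumina sequencing of plasmid inserts from psi-negative yeast with Sup35N fused to peptides of 20 random codons, induced with 100 μM copper sulfate for 24 hours and grown 7 days at 30°C on medium lacking adenine and uracil.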

| Substance | amyloid nucleation score |
| --- | --- |
| NLLNSFIFSRLRRVEGGMFG | inactive |
| NLLVLTDSVYIPLSHPYPNR | 0.493 ± 0.22 |
| NLNGLMRLQIAVLFQ | 0.577 ± 0.21 |
| NLQLESFYWFGPRGVRKHLE | inactive |
| NLRFVTREWCKTYQLI | inactive |
| NLRSLFKPWPVVPAYMRFME | inactive |
| NLSHDCPPGPAKARYYRNVK | inactive |
| NLSVIMLVVCMLTINNIYMS | 1.29 ± 0.11 |
| NLVTVLIISRWGAGLR | 1.17 ± 0.17 |
| NLVWICFFNGRNYLSMRDRA | 1.34 ± 0.15 |
| NMLVCITSDGLYFYCCGANS | 1.5 ± 0.11 |
| NMPYSCKRLWRDKCQMWEYR | inactive |
| NMRTCSIGSKPIVKFTYMCG | 1.31 ± 0.15 |
| NMRYKHAWNLEVVVLKVHVY | inactive |
| NMTVGHILFLMMTCAMYVNN | inactive |
| NMVSFWN | inactive |
| NMYGYADYYRAFRDSN | inactive |
| NNCSRICM | inactive |
| NNEYQRKNLWFKGKVWLCMY | inactive |
| NNFKGFFRRFTVGCSRTPPT | inactive |
| NNLFWHNAVCLGALEEYLSK | inactive |
| NNLNQRYYTRHLQSGNLFCS | inactive |
| NNSGLSFFSNLGWVLHGDLV | inactive |

| Substance | amyloid nucleation score |
| --- | --- |
| NNVGPAFHDAC | inactive |
| NPIYDSQLPATSCMQAFNAF | inactive |
| NQCIAYYGISRLWQM | inactive |
| NQMEN | 0.843 ± 0.36 |
| NQRSAILVGPSRNLQY | inactive |
| NQSCFMSAGNGSF | inactive |
| NQVISFWYSIQYCYEYSRNS | inactive |
| NRACKLCSFKSGQRSNTMGF | inactive |
| NRDVLQKPLIIAICQSFCSQ | 2.32 ± 0.083 |
| NRFMVPETVKENIACFQTIQ | inactive |
| NRIGSKTCKFFMALGM | inactive |
| NRKSRSYTLFLV | inactive |
| NRLCFISAMCNVTYWVICNH | inactive |
| NRLNIFIYSFNVAVVSI | 2.31 ± 0.082 |
| NRLYVKAELCSDAFRIVVAR | inactive |
| NRQFSDSLYRRACAMKEDCL | 0.643 ± 0.2 |
| NRRGSSVVRI | inactive |
| NRRNLSLFECLSSTGVSRVN | inactive |
| NRSCRDFRYY | inactive |
| NSCYRRHMCWCFSKAEFLTL | inactive |
| NSFDFYAAGPY | inactive |
| NSFDGTYVYTYLPSELSTFP | inactive |
| NSGTKQTLGYSSFRD | inactive |

| Substance | amyloid nucleation score |
| --- | --- |
| NSIQCKRTVCILSGSTVMRE | inactive |
| NSLFCTWSSPWVYNPTYGWE | 1.26 ± 0.17 |
| NSLLGHF | inactive |
| NSLMYFRGKFLFSIYNCYVH | inactive |
| NSLSIVM | -0.523 ± 1.1 |
| NSNSI | inactive |
| NSQGQNYILTFYR | 1.82 ± 0.088 |
| NSQKVIYKPFEAIYVTGTLT | inactive |
| NSRARSSYRIMNWWLLFDMT | inactive |
| NSRRCRNFASHRWPPEFRNS | inactive |
| NSRSFNTFKYNYGMLGFGVA | -0.612 ± 0.84 |
| NSRYQILITLDLC | inactive |
| NSVVSGFLGHVLVGRRCGHR | inactive |
| NSWDYYVAWPFVRFG | -0.947 ± 0.98 |
| NSYIFVQALMTFGDLTWAFH | 2.34 ± 0.073 |
| NTINVSPVLIDN | inactive |
| NTIRKKNLLFQAWLC | inactive |
| NTIVLILHYFYNSMLASSVI | inactive |
| NTLKSV | inactive |
| NTRLSMAF | inactive |
| NTSYSRMVCSKG | inactive |
| NTTFS | inactive |
| NVANRGLLHMELSVNKDWAM | 0.699 ± 0.16 |

| Substance | amyloid nucleation score |
| --- | --- |
| NVDDLGFLFIVDAYINCHFR | 1.58 ± 0.12 |
| NVDVYVGVPAQVGFVILFWT | -0.241 ± 0.61 |
| NVECSCDPEKTFIPKSVSLK | 0.102 ± 0.63 |
| NVGWIWPYM | inactive |
| NVLLYNRKGQFSKCLCKSVD | inactive |
| NVMVISMMTSR | inactive |
| NVQQALIHVSAHGCRFFLTC | 2.71 ± 0.065 |
| NVRFDGKVWLG | 0.744 ± 0.31 |
| NVRSNFLVADVVVFVRKIVR | 2.42 ± 0.072 |
| NVRVYSFQMTVECKELLDSQ | inactive |
| NVSQFISIGVVITFKMLLVW | -0.478 ± 0.68 |
| NVSRRGC | inactive |
| NVTTVFNKIPLPDSFNMRRW | 1.28 ± 0.084 |
| NWCILTLNGVSGRIRLPCWS | 0.405 ± 0.19 |
| NWDFFKLKVNSHLTYAHDHR | inactive |
| NWDTNFVYSIGIDIY | inactive |
| NWFCRGVIELPHPYAQTNFS | inactive |
| NWIVGSWCKVLSVVEKEW | 0.101 ± 0.62 |
| NWKLPGFPNLVQRITTDSPL | inactive |
| NWPGMLFNLSLVERRSWRRN | inactive |
| NWRLFWG | 1.6 ± 0.077 |
| NWSVHTGIDKVKADDGEFQL | inactive |
| NWVQKRPGQRHFNIASNCV | inactive |

| Substance | amyloid nucleation score |
| --- | --- |
| NWVVFFTYMAHHE | 0.166 ± 0.26 |
| NWYSLKGVISNFSAVFSHGY | inactive |
| NYFQFLKENFVARNKESRRG | inactive |
| NYKVRLNQDFENRHRYSMDT | inactive |
| NYLFRT | inactive |
| NYLGVTYCSYSS | inactive |
| NYLRLFLISIAYKSVLSVML | inactive |
| NYLVYSCDVRYSYMVSELAS | inactive |
| NYLYVELIWLHFSSMALRDD | inactive |
| NYMYGLRGSRLQFGMFRFGG | inactive |
| NYSAFRGSMIV | inactive |
| NYSFWLAIYSPCRSKCYARC | 1.58 ± 0.057 |
| NYSMNARGPVKDLAVFGSRG | inactive |
| NYYFT | inactive |
| NYYLGETLA | inactive |
| PCKDLQTYWFENWCQRFGR | inactive |
| PCLFSQDRVRKTRSHKVNAE | inactive |
| PCPLGPYLGYFTETSYAHGM | inactive |
| PCVYWSLNCSVVIIFSTRLL | inactive |
| PDDSRRNPRFG | inactive |
| PDLIHFTCLSSWFSSVVALV | inactive |
| PDNFNSRFNTRFKTHTRHPT | inactive |
| PDRLFLDTGSTWFKYMMSCL | -1.12 ± 1.4 |

| Substance | amyloid nucleation score |
| --- | --- |
| PDRMIGGLSFRKFDISCPYA | inactive |
| PDTLRRNRVSRFTFAKRCGL | -0.769 ± 0.98 |
| PDVFYILVTALWDVRNSNSF | inactive |
| PDWVVPDGGIVTGIVGWCSG | inactive |
| PEFDLCDINSSLGSMRFWQW | inactive |
| PFCFELSWGYGKNKVATMRY | inactive |
| PFCRMKLGMTLRALLLVMGS | inactive |
| PFGVKSMLAVYTHYVFGATV | inactive |
| PFPRNGLFHLFWYGLCYMAL | inactive |
| PFSSLASVVPLRGFG | inactive |
| PFTACWVSVADNPYPSNKTG | inactive |
| PFWELYKDFSSICRLTQEGY | inactive |
| PGKYGLV | inactive |
| PGLIVF | inactive |
| PGSLI | -0.219 ± 0.52 |
| PHMNWSYVPQF | inactive |
| PIAFSIALPRVVCRQ | inactive |
| PIFFCFNDVWTGNVVLDAMG | 3.05 ± 0.058 |
| PIMVRRHEGSH | inactive |
| PKCSIGKSLLVGRLMDVRAV | inactive |
| PKIRSF | inactive |
| PKNFLSVETF | inactive |
| PKSYVNTVKVMVVNSQVQLQ | 0.836 ± 0.2 |

| Substance | amyloid nucleation score |
| --- | --- |
| PLFHVFLELYTLPFVENFDV | inactive |
| PLLLQWHHYNLLGRS | 0.193 ± 0.69 |
| PLPYANKNNCFGNSSLRATI | inactive |
| PLQNKASVRVGCWAML | inactive |
| PLSLDFVDVARFSGRTGCWF | inactive |
| PLSLSGGDDDRLLSLEMLVL | inactive |
| PLSVAFYGVTIR | 0.056 ± 0.19 |
| PLYQSYYHLEPSCDWCYSSR | -0.144 ± 0.28 |
| PMCFSSHRFGTCRINWHVPG | inactive |
| PMKGSSMSTPTANIRQ | -0.135 ± 1.1 |
| PMYVHRKDYKVVGSYMSTM | inactive |
| PNGSYAKQLLVSIL | inactive |
| PNLMLPCTSGRELMKVSNVL | inactive |
| PNPLRLNNIRRVLARKSKVS | inactive |
| PNPYGNGIITWKN | inactive |
| PNRLTPFQRSTSSHLQNVGQ | inactive |
| PNRNYVCGMSCYGAVVSELR | inactive |
| PNYKNYLGGNRVVS | inactive |
| PQIVFRFDNIDQ | inactive |
| PRGMPIAIFSDWCRLRWGVF | inactive |
| PRNHIRSLSM | inactive |
